From publication PMC2565473, “A Ligand Peptide Motif Selected from a Cancer Patient Is a Receptor-Interacting Site within Human Interleukin-11” (PLoS ONE, 2008)
Positions count from the first letter of the chain named. Bridges are numbered along the chain shown (N, C = ends). Where no end group is shown, it is not given here.

B1: IL-11Rα (recombinant, extracellular domain fused to the Fc region of human IgG) (Fc fusion, UniProt Q14626 24-370, looked up)
chain: SPCPQAWGPPGVQYGQPGRSVKLCCPGVTAGDPVSWFRDGEPKLLQGPDSGLGHELVLAQADSTDEGTYICQTLDGALGGTVTLQLGYPPARPVVSCQAADYENFSCTWSPSQISGLPTRYLTSYRKKTVLGADSQRRSPSTGPWPCPQDPLGAARCVVHGAEFWSQYRINVTEVNPLGASTRLLDVSLQSILRPDPPQGLRVESVPGYPRRLRASWTYPASWPCQPHFLLKFRLQYRPAQHPAWSTVEPAGLEEVITDAVAGLPHAVRVSARDFLDAGTWSTWSPEAWGTPSTGTIPKEIPAWGQLHTQPEVEPQVDSPAPPRPSLQPHPRLLDHRDSVEQVAVLA
notes: human interleukin-11 receptor alpha, extracellular domain; The methods of the NMR and of the proliferation assay name only 'IL-11Rα' or 'human sIL-11Rα'; also called IL-11 receptor α; sIL-11Rα; source: bought: R&D Systems
B2: CGARAGGSC phage (Arg^3 to Ala mutant of the … phage) (peptide)
peptide: CGARAGGSC
notes: source: phage display, cloned into SfiI-digested fUSE5 vector
B3: CGRRAAGSC phage (Gly^6 to Ala mutant of the … phage) (peptide)
peptide: CGRRAAGSC
notes: as for B2
B4: synthetic cyclic peptide CGRRAGGSC (peptide)
peptide: CGRRAGGSC
modifications: disulfide 1-9
notes: peptide selected from a combinatorial phage library in a cancer patient; RRAGGS corresponds to residues 112-117 of human IL-11; also called IL-11-like peptide; source: synthetic peptide, synthesized and cyclized at AnaSpec

Legend:
[1] = target: T1, GST-IL-11 S117A (human, UniProt P20809 22-199, S117A); test: ELISA; GST fusion proteins coated overnight on 96-well plates at 5 µg/ml, blocked with 3% BSA in PBS; IL-11Rα (1 µg/ml) incubated for 2 h; detected with anti-human Fc HRP-conjugated antibody; conditions: both partners purified
T1 construct: human interleukin-11, open reading frame in pGEX4T-1, alanine mutant made on the GST-IL-11 plasmid; As m7 with the mutation; also called Ser^117 mutant; source: E. coli BL21, purified from inclusion bodies (solubilized in 6 M guanidine-HCl)
T1 sequence (looked up): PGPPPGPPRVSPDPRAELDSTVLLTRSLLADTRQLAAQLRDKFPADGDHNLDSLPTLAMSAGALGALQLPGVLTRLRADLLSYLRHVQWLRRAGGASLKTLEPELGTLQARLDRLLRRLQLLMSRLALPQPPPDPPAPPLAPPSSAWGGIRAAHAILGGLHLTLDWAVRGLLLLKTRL

[2] = target: T2, GST-IL-11 G116A (human, UniProt P20809 22-199, G116A); test: as above; conditions: both partners purified
T2 construct: human interleukin-11, open reading frame in pGEX4T-1, alanine mutant made on the GST-IL-11 plasmid; As m7 with the mutation; also called Gly^116 mutant; source: E. coli BL21, purified from inclusion bodies (solubilized in 6 M guanidine-HCl)
T2 sequence (looked up): T1 sequence (looked up) with G95A, A96S

[3] = target: T3, GST-IL-11 R112A (human, UniProt P20809 22-199, R112A); test: as above; conditions: both partners purified
T3 construct: human interleukin-11, open reading frame in pGEX4T-1, alanine mutant made on the GST-IL-11 plasmid; As m7 with the mutation; also called Arg^112 mutant; source: E. coli BL21, purified from inclusion bodies (solubilized in 6 M guanidine-HCl)
T3 sequence (looked up): T1 sequence (looked up) with R91A, A96S

[4] = target: T4, GST-IL-11 G115A (human, UniProt P20809 22-199, G115A); test: as above; conditions: both partners purified
T4 construct: human interleukin-11, open reading frame in pGEX4T-1, alanine mutant made on the GST-IL-11 plasmid; As m7 with the mutation; also called Gly^115 mutant; source: E. coli BL21, purified from inclusion bodies (solubilized in 6 M guanidine-HCl)
T4 sequence (looked up): T1 sequence (looked up) with G94A, A96S

[5] = target: GST-IL-11 R113A (human) (UniProt P20809); test: as above
[6] = target: B1; test: phage binding assay; alanine-scanning phage on immobilized IL-11Rα, done as a1; result given as grade of the ratio binding to IL-11Rα / binding to BSA; in duplicate, repeated at least four times; conditions: one partner purified
[7] = target: B1; test: NMR titration; 1D-1H and 2D-1H TOCSY/NOESY at 600 MHz; IL-11Rα 6 µM, peptide up to 400 µM (molar excess ∼16-, 33- and 66-fold); 50 mM sodium phosphate, 5 mM sodium azide, 10% D2O; 25°C; conditions: both partners purified

Binder: B1
- % binding inhibition relative to wild-type IL-11 [1]: 86%
- % binding inhibition relative to wild-type IL-11 [2]: 29%
- % binding inhibition relative to wild-type IL-11 [3]: 43%
- % binding inhibition relative to wild-type IL-11 [4]: 71%
- % binding inhibition relative to wild-type IL-11 [5]: 86%

Binder: B2
- % reduction of binding relative to the … phage [6]: > 70%

Binder: B3
- % reduction of binding relative to the … phage [6]: > 70%

Binder: B4
- binding result [7]: binds
